Assay results from patent US20240132603A1 (HARBOUR BIOMED US, published 2024).

Experiments:
MMP16 = target: T1, MMP16 (UniProt P51512 120-607); assay: flow cytometry, transfected HEK293 cells
T1 construct: whole, on cells; also called HEK293-MMP16
Excerpt: (§1) After that, HEK293 cells were transfected with commercial MMP16 (protein information can be found under Uniprot P51512), CD40LG (protein information can be found under Uniprot P29965), CD147 (protein information can be found under Uniprot P35612), TSPAN4 (protein information can be found under Uniprot 014817), and TSPAN12 (protein information can be found under Uniprot 095859) plasmids for further verification of the binding of PR005565, PR006275 and PR006276 to these proteins. […] However, the binding values of PR005565, PR006275 and PR006276 to MMP16, CD40LG, CD147, TSPAN4 and TSPAN12 after transfection of HEK293 cells were all consistent with the signal values of HEK293 cells themselves. Thus, PR005565, PR006275 and PR006276 had no non-specific binding to MMP16, CD40LG, CD147, TSPAN4 and TSPAN12 proteins (see Table 50).

TSPAN12-FLAG = target: T2, TSPAN12-FLAG (UniProt O95859 1-305); assay: flow cytometry, transfected HEK293 cells
T2 construct: whole, on cells; order of protein and tag unknown; also called HEK293-TSPAN12; not shown: FLAG tag
T2 sequence (looked up): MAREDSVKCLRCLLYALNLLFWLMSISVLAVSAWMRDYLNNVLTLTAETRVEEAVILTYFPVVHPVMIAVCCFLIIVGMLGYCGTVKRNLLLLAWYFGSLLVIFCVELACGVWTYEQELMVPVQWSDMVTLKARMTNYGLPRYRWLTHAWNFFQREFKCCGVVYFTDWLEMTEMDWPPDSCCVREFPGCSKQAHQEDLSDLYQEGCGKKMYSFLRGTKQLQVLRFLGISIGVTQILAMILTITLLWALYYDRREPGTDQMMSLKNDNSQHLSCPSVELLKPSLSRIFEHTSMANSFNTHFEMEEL
Excerpt: as §1

TSPAN4-FLAG = target: T3, TSPAN4-FLAG (UniProt O14817 1-238, limits assumed); assay: flow cytometry, transfected HEK293 cells
T3 construct: whole, on cells; order of protein and tag unknown; also called HEK293-TSPAN4; not shown: FLAG tag
T3 sequence (looked up): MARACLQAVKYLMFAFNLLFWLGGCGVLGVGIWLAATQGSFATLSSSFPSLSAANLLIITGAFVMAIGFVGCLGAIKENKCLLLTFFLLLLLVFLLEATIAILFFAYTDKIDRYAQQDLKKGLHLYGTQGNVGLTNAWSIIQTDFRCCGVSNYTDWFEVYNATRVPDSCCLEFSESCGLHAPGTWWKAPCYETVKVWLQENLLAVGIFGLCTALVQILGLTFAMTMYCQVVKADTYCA
Excerpt: as §1

CD40LG = target: T4, CD40LG (UniProt P29965 1-261); assay: flow cytometry, transfected HEK293 cells
T4 construct: whole, on cells; also called HEK293-CD40LG
T4 sequence (looked up): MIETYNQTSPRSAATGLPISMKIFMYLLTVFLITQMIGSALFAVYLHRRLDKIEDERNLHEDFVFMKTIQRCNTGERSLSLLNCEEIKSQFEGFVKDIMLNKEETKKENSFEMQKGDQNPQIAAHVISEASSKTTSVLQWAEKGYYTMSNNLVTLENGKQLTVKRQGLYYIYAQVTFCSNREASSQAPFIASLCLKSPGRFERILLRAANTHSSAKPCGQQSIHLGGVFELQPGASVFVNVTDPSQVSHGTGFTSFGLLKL
Excerpt: as §1

cynomolgus monkey CCR8 [1] = target: T5, cynomolgus monkey CCR8 (cynomolgus monkey, UniProt G7NYJ2 1-355); assay: KinExA, cell line overexpressing monkey CCR8; monkey CCR8 cell line
T5 construct: whole, on cells; also called CynoCCR8
Method: To 200 mg of PMMA hard beads was added 30 μg of Goat Anti-Human IgG Fc antibody, and the mixture was supplemented with a coating solution to 1.0 mL, with a buffer composition of 1×PBS, pH7.4, to ensure that the beads were completely suspended in the solution. After being spun at room temperature for 2 h, the beads were either allowed to settle naturally or centrifuged briefly at low speed, and the supernatant was removed. 1 mL of blocking buffer (1×PBS, pH7.4, containing 10 mg/mL BSA) was added to ensure that the beads were resuspended in the blocking solution, and the beads were spun at room temperature for 1 h. An appropriate concentration of PR005565, PR006155 or PR006166 was used as the 100% signal value, and PBS blank was used as the background value. The net signal values were detected using 0.5 μg/mL Alexa Fluor® 647 Goat Anti-Human IgG. The cell line overexpressing human or monkey CCR8 was collected by centrifugation at 1500 g for 5 min, washed 2 times with 2 PBS and centrifuged at 350 g. The cells were collected in a 1.5 mL centrifuge tube. 10 mL of 0.2 nM PR005565, PR006155 or PR006166 solution was prepared. The total cells were supplemented with 0.2 nM PR005565, PR006155 or PR006166 solution to 0.82 mL, and diluted in a 2-fold gradient with 0.2 nM PR005565, PR006155 or PR006166 as a buffer. […]

CD147 = target: T6, CD147; assay: flow cytometry, HEK293-CD147 cells
T6 construct: also called HEK293-CD147

cynomolgus monkey CCR8 [2] = target: T5, cynomolgus monkey CCR8; assay: FACS, CHO-K1-CynoCCR8 cells
Procedure, shortened: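 Anti-CCR8 antibodies titrated in 5-fold steps from 200 nM onto 1E6 cells/mL CHO-K1-CynoCCR8 in DPBS/2% FBS, 1 h at 4 °C. Bound antibody detected with 1:1000 secondary antibody, 40 min at 4 °C, then flow cytometry.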

T5 sequence (G7NYJ2 entry or part of it): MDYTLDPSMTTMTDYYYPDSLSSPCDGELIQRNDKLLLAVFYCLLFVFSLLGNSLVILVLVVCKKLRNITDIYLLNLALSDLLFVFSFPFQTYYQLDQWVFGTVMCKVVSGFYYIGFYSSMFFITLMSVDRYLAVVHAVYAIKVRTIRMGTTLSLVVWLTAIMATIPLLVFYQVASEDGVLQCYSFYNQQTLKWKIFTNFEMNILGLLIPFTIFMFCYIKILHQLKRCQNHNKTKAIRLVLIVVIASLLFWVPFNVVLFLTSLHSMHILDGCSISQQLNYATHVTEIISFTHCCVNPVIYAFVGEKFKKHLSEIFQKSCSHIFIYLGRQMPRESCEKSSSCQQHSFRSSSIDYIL
T1 sequence (P51512 120-607): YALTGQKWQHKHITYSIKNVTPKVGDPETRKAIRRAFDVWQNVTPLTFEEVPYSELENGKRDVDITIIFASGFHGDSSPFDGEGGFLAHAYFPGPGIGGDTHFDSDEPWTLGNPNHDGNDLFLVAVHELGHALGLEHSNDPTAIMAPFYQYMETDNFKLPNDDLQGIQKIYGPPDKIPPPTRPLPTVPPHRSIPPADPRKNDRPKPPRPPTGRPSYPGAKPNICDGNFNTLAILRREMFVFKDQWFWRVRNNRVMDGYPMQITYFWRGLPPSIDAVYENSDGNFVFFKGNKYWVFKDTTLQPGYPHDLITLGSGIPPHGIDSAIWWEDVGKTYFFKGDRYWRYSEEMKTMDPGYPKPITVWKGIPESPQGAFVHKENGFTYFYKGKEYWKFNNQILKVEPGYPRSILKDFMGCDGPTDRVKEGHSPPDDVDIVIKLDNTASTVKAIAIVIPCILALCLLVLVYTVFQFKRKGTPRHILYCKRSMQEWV

B1: PR005565 (antibody, human IgG1, kappa)
heavy: not shown
light: DIVMTQSPLSLPVTLGQPASISCRSSKSLLHSNAKIYLYWFQQRPGQSPRLLIYRMSNLASGVPDRFSGSGSGTDFTLKISRVEAEDVGVYYCMQHLEYPLTFGQGTKLEIKRTVAAPSVFIFPPSDEQLKSGTASVVCLLNNFYPREAKVQWKVDNALQSGNSQESVTEQDSKDSTYSLSSTLTLSKADYEKHKVYACEVTHQGLSSPVTKSFNRGEC
notes: IgG1 constant region; same VH/VL as PR004666
- binding result (MMP16): no binding
- binding result (TSPAN12-FLAG): no binding
- binding result (TSPAN4-FLAG): no binding
- binding result (CD40LG): no binding
- Kd (cynomolgus monkey CCR8 [1]): 0.177 nM
- MFI (CD147): 212
- EC50 (cynomolgus monkey CCR8 [2]): 0.76 nM
